A word on the Kd: it is the concentration at which binding is half-saturated.

The values that follow come from publication PMC12371180, “Redox regulation of LSD1/CATALASE 2 phase separation condensates controls location and functions” (The New Phytologist, 2025).

The target of assay [1] is catalase 2 (CAT2), recombinant Arabidopsis thaliana, full-length (Arabidopsis thaliana) (UniProt P25819).
Assay [2] has as its target T1, PEX5-CAT2 complex (Atto-488-labelled CAT2 saturated with PEX5) (Arabidopsis thaliana, UniProt P25819 1-492; Q9FMA3 1-728, labelled with Atto-488 (protein to dye 1:1)).
T1 construct: catalase 2 (CAT2), Arabidopsis thaliana, full-length recombinant protein; as the chain of m2; PEX5, peroxisomal PTS1 import receptor, Arabidopsis thaliana, full-length recombinant protein; as the chain of m3
T1 sequence (looked up) 1: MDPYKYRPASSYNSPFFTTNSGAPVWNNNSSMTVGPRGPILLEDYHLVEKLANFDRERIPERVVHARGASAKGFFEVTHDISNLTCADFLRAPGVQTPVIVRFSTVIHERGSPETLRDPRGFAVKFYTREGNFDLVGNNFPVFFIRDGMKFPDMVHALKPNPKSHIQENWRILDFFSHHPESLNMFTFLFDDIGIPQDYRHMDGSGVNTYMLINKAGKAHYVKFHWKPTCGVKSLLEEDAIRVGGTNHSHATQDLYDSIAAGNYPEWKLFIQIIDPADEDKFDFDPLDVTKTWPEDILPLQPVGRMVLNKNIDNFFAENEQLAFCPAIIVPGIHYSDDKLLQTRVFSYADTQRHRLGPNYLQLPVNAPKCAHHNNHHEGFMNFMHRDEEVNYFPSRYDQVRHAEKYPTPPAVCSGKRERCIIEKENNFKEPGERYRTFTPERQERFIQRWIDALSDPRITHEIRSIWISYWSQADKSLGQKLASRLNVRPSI
T1 sequence (looked up) 2: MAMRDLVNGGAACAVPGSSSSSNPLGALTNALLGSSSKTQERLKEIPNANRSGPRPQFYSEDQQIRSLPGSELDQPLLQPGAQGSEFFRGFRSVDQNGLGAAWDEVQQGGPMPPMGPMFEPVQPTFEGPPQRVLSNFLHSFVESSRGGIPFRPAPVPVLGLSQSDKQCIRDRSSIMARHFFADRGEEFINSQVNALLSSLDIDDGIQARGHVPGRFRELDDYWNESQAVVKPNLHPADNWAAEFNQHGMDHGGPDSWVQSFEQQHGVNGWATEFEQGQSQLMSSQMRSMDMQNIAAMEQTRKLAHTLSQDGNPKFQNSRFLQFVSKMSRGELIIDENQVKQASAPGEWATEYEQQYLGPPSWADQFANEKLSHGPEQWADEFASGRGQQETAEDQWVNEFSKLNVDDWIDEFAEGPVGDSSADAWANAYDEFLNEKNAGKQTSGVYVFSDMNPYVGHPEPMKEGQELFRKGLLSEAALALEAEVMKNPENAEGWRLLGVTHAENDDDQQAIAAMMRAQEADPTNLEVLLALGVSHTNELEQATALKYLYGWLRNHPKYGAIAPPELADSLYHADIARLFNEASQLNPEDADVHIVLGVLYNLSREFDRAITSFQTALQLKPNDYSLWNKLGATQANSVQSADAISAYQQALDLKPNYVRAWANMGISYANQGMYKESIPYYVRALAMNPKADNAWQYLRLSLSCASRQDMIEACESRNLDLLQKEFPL
The assay is described as follows: MST; Atto-488-labelled CAT2 saturated with PEX5 (10-fold above the affinity value) before titration of LSD1; 25°C, 20 mM HEPES pH 7.5, 20 mM NaCl, 0.05% Tween 20. Conditions: both partners purified.

Assay [3] concerns the target T2, peroxisome import receptor PEX5, recombinant Arabidopsis thaliana, full-length (Arabidopsis thaliana, UniProt Q9FMA3 1-728, unlabelled in MST; labelled with Atto-647 in the condensate imaging).
T2 construct: PEX5, peroxisomal PTS1 import receptor, Arabidopsis thaliana, full-length recombinant protein; cloning not described; The cloning of the PEX5 construct is not described in the methods
T2 sequence (looked up): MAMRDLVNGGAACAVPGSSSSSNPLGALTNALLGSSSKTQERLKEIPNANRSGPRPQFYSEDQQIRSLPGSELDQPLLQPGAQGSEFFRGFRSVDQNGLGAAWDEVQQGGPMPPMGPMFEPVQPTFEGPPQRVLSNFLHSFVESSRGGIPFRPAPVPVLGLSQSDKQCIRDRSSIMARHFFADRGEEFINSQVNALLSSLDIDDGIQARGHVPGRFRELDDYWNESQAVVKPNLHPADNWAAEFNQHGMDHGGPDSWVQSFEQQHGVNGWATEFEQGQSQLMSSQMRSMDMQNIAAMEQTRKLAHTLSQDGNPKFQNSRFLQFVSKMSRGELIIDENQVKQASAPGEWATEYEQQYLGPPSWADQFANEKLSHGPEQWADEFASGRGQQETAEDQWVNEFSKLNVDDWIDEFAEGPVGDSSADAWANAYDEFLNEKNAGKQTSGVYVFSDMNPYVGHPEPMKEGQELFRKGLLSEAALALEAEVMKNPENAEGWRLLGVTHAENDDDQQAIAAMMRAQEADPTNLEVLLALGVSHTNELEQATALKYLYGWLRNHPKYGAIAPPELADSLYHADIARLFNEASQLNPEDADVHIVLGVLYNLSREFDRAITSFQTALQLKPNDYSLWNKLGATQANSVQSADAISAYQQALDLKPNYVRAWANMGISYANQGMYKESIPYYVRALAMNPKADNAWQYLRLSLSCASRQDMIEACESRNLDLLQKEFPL
The assay is described as follows: MST; 100 nM Atto-488-labelled CAT2, unlabelled partner serially diluted; 25°C, 20 mM HEPES pH 7.5, 20 mM NaCl, 0.05% Tween 20; Monolith NT.115. The note with it: both partners purified.

B1: LESION SIMULATING DISEASE1 (LSD1), recombinant Arabidopsis thaliana, full-length (natural protein, UniProt P94077-2 1-184, looked up)
chain: MQDQLVCHGCRNLLMYPRGASNVRCALCNTINMVPPPPPPHDMAHIICGGCRTMLMYTRGASSVRCSCCQTTNLVPAHSNQVAHAPSSQVAQINCGHCRTTLMYPYGASSVKCAVCQFVTNVNMSNGRVPLPTNRPNGTACPPSTSTSTPPSQTQTVVVENPMSVDESGKLVSNVVVGVTTDKK
modifications: unlabelled when titrated in MST; labelled with Atto-550 in the condensate imaging
notes: LSD1 (LESION SIMULATING DISEASE1), Arabidopsis thaliana, full-length, cloned into pET28b with NdeI and NotI; pET28b with NdeI cloning would usually add an N-terminal His tag (surmise; source: dialysed)
Take B1: the catalase activity (change of 240 nm absorbance in 30 mM H2O2) of 10 μM CAT2 mixed with 10 μM LSD1 to form LSD1-CAT2 condensates, against CAT2 alone in assay [1] stood at 2.5 fold. In addition, in assay [2], binding was characterised by a dissociation constant (Kd) of 136 ± 39.8 nM.

B2: catalase 2 (CAT2), recombinant Arabidopsis thaliana, full-length (enzyme, UniProt P25819 1-492, looked up)
chain: MDPYKYRPASSYNSPFFTTNSGAPVWNNNSSMTVGPRGPILLEDYHLVEKLANFDRERIPERVVHARGASAKGFFEVTHDISNLTCADFLRAPGVQTPVIVRFSTVIHERGSPETLRDPRGFAVKFYTREGNFDLVGNNFPVFFIRDGMKFPDMVHALKPNPKSHIQENWRILDFFSHHPESLNMFTFLFDDIGIPQDYRHMDGSGVNTYMLINKAGKAHYVKFHWKPTCGVKSLLEEDAIRVGGTNHSHATQDLYDSIAAGNYPEWKLFIQIIDPADEDKFDFDPLDVTKTWPEDILPLQPVGRMVLNKNIDNFFAENEQLAFCPAIIVPGIHYSDDKLLQTRVFSYADTQRHRLGPNYLQLPVNAPKCAHHNNHHEGFMNFMHRDEEVNYFPSRYDQVRHAEKYPTPPAVCSGKRERCIIEKENNFKEPGERYRTFTPERQERFIQRWIDALSDPRITHEIRSIWISYWSQADKSLGQKLASRLNVRPSI
modifications: labelled with Atto-488 (protein to dye 1:1) in MST and in the condensate imaging
notes: catalase 2 (CAT2), Arabidopsis thaliana, full-length recombinant protein; cloned into pET28b with NdeI and XhoI; pET28b with NdeI cloning would usually add an N-terminal His tag (surmise)
Turning to B2, in assay [3], the Kd worked out at 2350 ± 279 nM.
